Biological target: the molecule itself
Assay: native MS; native ESI-MS, 200 mM ammonium acetate buffer (pH 7.4); monomeric species are the main ones, homodimeric species detected

B1: hDVL3 PDZ-IDR2-DEP (amino acids 243 to 496), nonphosphorylated (domain or fragment, human, UniProt Q92997 243-496, looked up)
chain: MSLNIITVTLNMEKYNFLGISIVGQSNERGDGGIYIGSIMKGGAVAADGRIEPGDMLLQVNEINFENMSNDDAVRVLREIVHKPGPITLTVAKCWDPSPRGCFTLPRSEPIRPIDPAAWVSHTAAMTGTFPAYGMSPSLSTITSTSSSITSSIPDTERLDDFHLSIHSDMAAIVKAMASPESGLEVRDRMWLKITIPNAFIGSDVVDWLYHNVEGFTDRREARKYASNLLKAGFIRHTVNKITFSEQCYYIFGD
notes: human Dishevelled 3 (DVL3), PDZ domain, IDR2 and DEP domain, amino acids 243 to 496; source: E. coli BL21 (DE3), purified (Ni-NTA, TEV cleavage, second Ni-NTA, anion exchange, SEC); not shown: His6, N-terminal, cleaved
binding result: binds

B2: phosphorylated hDVL3 PDZ-IDR2-DEP (amino acids 243 to 496) (domain or fragment, human, UniProt Q92997 243-496, looked up)
chain: MSLNIITVTLNMEKYNFLGISIVGQSNERGDGGIYIGSIMKGGAVAADGRIEPGDMLLQVNEINFENMSNDDAVRVLREIVHKPGPITLTVAKCWDPSPRGCFTLPRSEPIRPIDPAAWVSHTAAMTGTFPAYGMSPSLSTITSTSSSITSSIPDTERLDDFHLSIHSDMAAIVKAMASPESGLEVRDRMWLKITIPNAFIGSDVVDWLYHNVEGFTDRREARKYASNLLKAGFIRHTVNKITFSEQCYYIFGD
modifications: 8 to 19 phosphates present (native ESI-MS), on S/T residues of IDR2, by CK1ε
notes: human Dishevelled 3 (DVL3), PDZ domain, phosphorylated IDR2 and DEP domain, amino acids 243 to 496; also called PDZ-pIDR2-DEP; source: E. coli BL21 (DE3), purified; phosphorylated by CK1ε; not shown: His6, N-terminal, cleaved
binding result: binds

From PMC13170675, “A Wnt-induced conformational phospho-switch in DVL3 controls association with Frizzled receptors and Wnt/β-catenin signaling” (Science Advances, 2026)
